Where a chain is given by its changes, count along the chain named. Where two headings read alike, the source gives them in different places.

What is called Kd is the constant that tells how readily two partners part at equilibrium. The low end stands for tighter binding, the high end for weaker binding. As usually defined, the koff is the rate constant with which the complex falls apart. Low values mean slow dissociation, high ones fast dissociation. Broadly, the kon is the rate constant with which the complex forms. Low readings indicate slower complex formation, high ones faster complex formation.

Experiment [1] has as its target T1, YU-2 gp140 (HIV-1 YU2, UniProt P35961 32-670).
T1 construct: domain: gp140; also called YU2 gp140 trimer
The experiment in a line: SPR, gp140 on chip, IgG injected.

The target in experiment [2] is T2, YU2 gp120 (HIV-1 YU2, UniProt P35961 32-498).
T2 construct: domain: gp120
The experiment can be described thus: ELISA, column Binding. On the technique in general: In an ELISA, binding on a coated surface is turned into a signal by an enzyme label.
Method: (§1) ELISAs. […] After washing, plates were blocked 2 h with 2% BSA, 1 μM EDTA, 0.05% Tween-PBS (Blocking buffer) and then, incubated 2h with IgG antibodies diluted at 4 μg/ml and several consecutive 1:4 dilutions in PBS. After washing, the plates were developed by incubation for 1 h with goat HRP-conjugated anti-mouse IgG (Jackson ImmunoReseach) (at 0.8 μg/ml in blocking buffer) and by adding 100 μl of HRP chromogenic substrate (ABTS solution, Invitrogen). […] Background values given by incubation of PBS alone in coated wells were subtracted. […] Threshold values for reactivity were determined by using control antibodies mGO53 (negative), eiJB40 (low positive), and ED38 (high positive).

For experiment [3], the target named is T1, YU-2 gp140. The experiment can be described thus: SPR, gp140 on chip, IgG injected; minus sign of the exponent missing in print (kd/ka gives 3.75e-12). (In general: In SPR one partner is held on a chip, and binding of the other changes the refractive index at the surface.)
Experiment [4] deals with T2, YU2 gp120. The experiment in a line: ELISA, column Binding. The source holds these as a separate data set.
Method: as §1

B1: 8ANC195 (antibody, V domains shown)
VH: QIHLVQSGTEVKKPGSSVTVSCKAYGVNTFGLYAVNWVRQAPGQSLEYIGQIWRWKSSASHHFRGRVLISAVDLTGSSPPISSLEIKNLTSDDTAVYFCTTTSTYDKWSGLHHDGVMAFSSWGQGTLISVSA
VL: DIQMTQSPSTLAASIGGTVRVSCRASQSITGNWVAWYQQRPGKAPRLLIYRGAALLGGVPSRFSGSAAGTDFTLTIGNLQAEDFGTFYCQQYDTYPGTFGQGTKVEVKR
notes: also called 8ANC195HC; 8ANC195KC
For the molecule B1, in the experiment with YU-2 gp140 [1], the Kd amounted to 34.3 nM, the koff is 0.00167 s⁻¹ and the kon came out at 48800 M⁻¹ s⁻¹.

B2: 1NC9 (antibody, V domains shown)
VH: QVRLVQSGAQLKKPGASVTVSCEASGYNFVNYIINWVRQTPGRSFEWVGMIDPRRGRPWSAQKFQGRLTLTRDIDSEKLYMHLSGLRGDDTAVYYCARQDSDFHDGHGHTLRGMFDSWGQGSPVTVSS
VL: QVLSVSGTPGQRVIISCSGTSSNVGGNLVSWYQHLPGAAPRLLIHRDDQRPSGVPDRFSGSKSGNSASLVISGLRSDDEADYFCAAYDSTFSLPVFGGGTRLTVLS
notes: also called LSSNEC9HC; LSSNEC9LC
In the experiment with YU-2 gp140 [1], B2 registered a Kd of 12 nM, a koff of 0.000581 s⁻¹ and a kon of 48300 M⁻¹ s⁻¹.

B3: NIH45-46 (antibody, V domains shown)
VH: QVRLSQSGGQMKKPGESMRLSCRASGYEFLNCPINWIRLAPGRRPEWMGWLKPRGGAVNYARKFQGRVTMTRDVYSDTAFLELRSLTSDDTAVYFCTRGKYCTARDYYNWDFEH
VL: EIVLTQSPATLSLSPGETAIISCRTSQSGSLAWYQQRPGQAPRLVIYSGSTRAAGIPDRFSGSRWGADYNLSISNLESGDFGVYYCQQYEFFG
In the experiment with YU-2 gp140 [1], B3 registered a Kd of 6.75 nM, a koff of 0.000287 s⁻¹ and an on-rate constant (kon) of 42600 M⁻¹ s⁻¹.

B4: 8ANC24 (antibody, V domains shown)
VH: QVQLVQSGAEVKMPGASVKVSCKVSGYSLTELSIHWVRQAPGKRLEWMGGFDPEDDERIYAQKFQDRVTMTEDTSTDTAYMDLNSLRSEDTAVYYCTTGGLYCSSISCIMDVWGQGTTVIVSS
VL: EIVMTQSPATLSMSPGERATLSCRASLSVNTNLAWYQQKPGQAPRLLIYGASTRATGIPARFSGSGSGTEFTLTISSLQSEDFALYYCQQYNHWPQTFGQGTKVEIKR
notes: also called 8ANC24HC; 8ANC24KC
For the molecule B4, in the experiment with YU2 gp120 [2], the binding result is reported as “binds”.

B5: 3BNC60 (antibody, V domains shown)
VH: QVHLSQSGAAVTKPGASVRVSCEASGYKISDHFIHWWRQAPGQGLQWVGWINPKTGQPNNPRQFQGRVSLTRQASWDFDTYSFYMDLKAVRSDDTAIYFCARQRSDFWDFDVWGSGTQVTVSSASTKG
VL: DIQMTQSPSSLSARVGDTVTITCQANGYLNWYQQRRGKAPKLLIYDGSKLERGVPARFSGRRWGQEYNLTINNLQPEDVATYFCQVYEFIVPGTRLDLKRTVAA
notes: also called 3BNC60HC; 3BNC60KC
Regarding B5, in the experiment with YU-2 gp140 [1], the Kd amounted to 6.81 nM, the koff was 0.000186 s⁻¹ and the kon came to 27300 M⁻¹ s⁻¹.

B6: 3BNC117 (antibody, V domains shown)
VH: B5 VH with H3Q, S5L, K28N, S30R, H32Y, Q73H, Y81F, V90L, I97V, F107Y
VL: DIQMTQSPSSLSASVGDTVTITCQANGYLNWYQQRRGKAPKLLIYDGSKLERGVPSRFSGRRWGQEYNLTINNLQPEDIATYFCQVYEFVVPGTRLDLKRTVAAPSVFIFPPSD
notes: also called 3BNC117HC; 3bnc117kc
In the experiment with YU-2 gp140 [1], B6 showed a Kd of 6.54 nM, a koff of 0.000199 s⁻¹ and a kon of 30400 M⁻¹ s⁻¹.

B7: 3BNC55 (antibody, V domains shown)
VH: QVQLVQSGTAVKRPGASVRVSCQASGYTFTDYFIYWWRQAPGQGLEWLGWINPLTSQPSYPSRFQGRLTLTRDTFDEMLYMDLRGLRSDDTGIYFCARRHSDYCDFDIWGSGTQIIVSS
VL: DIQMTQSPSSLSASVGDKVTITCQTSAGYLNWYQQRRGRAPKLLMYDGSRLVTGVPSRFSGRRWGTQYNLTIGSLQPEDIATYYCQVYEFFGPGTRLDLKS
notes: also called 3BNC55HC; 3BNC55KC
In the experiment with YU-2 gp140 [1], B7 registered a Kd of 57.8 nM, an off-rate (koff) of 0.000755 s⁻¹ and a kon of 13100 M⁻¹ s⁻¹.

B8: 3BNC66 (antibody, V domains shown)
VH: QVQLVQSGAALKKPGASLRISCQTYGYKFTDHLIYWWRQAPGQGLEWIGWIKPETGQPSYSYRFQGRVSLTRDTFEEIAFMDLRGLRSDDTAIYFCARRHTDYCVFDVWGSGSQIIVSS
VL: B7 VL with K18T, S26N, A27K, R50K, F59L, S101R
notes: also called 3BNC66HC; 3bnc66kc
As to B8, in the experiment with YU-2 gp140 [1], the Kd amounted to 88.1 nM, the koff was 0.00141 s⁻¹ and the kon turned out to be 16000 M⁻¹ s⁻¹.

B9: 3BNC156 (antibody, V domains shown)
VH: B8 VH with A79V, T101S, V105D, S111G, I115V
VL: B7 VL with K18T, S26N, A27K, R36K, R50K, F59L, S101R
notes: also called 3BNC156HC; 3bnc156kc
On to B9, for which, in the experiment with YU-2 gp140 [1], the Kd was found to be 175 nM, the koff worked out at 0.00198 s⁻¹ and the kon amounted to 11300 M⁻¹ s⁻¹.

B10: 12A21 (antibody, V domains shown)
VH: SQHLVQSGTQVKKPGASVRVSCQASGYTFTNYILHWWRQAPGQGLEWMGLIKPVFGAVNYARQFQGRIQLTRDIYREIAFLDLSGLRSDDTAVYYCARDESGDDLKWHLHPWGQGTQVIVSP
VL: DIQMTQSPSSLSASVGDRVTINCQAGQGIGSSLNWYQKKPGRAPKLLVHGASNLQRGVPSRFSGSGFHTTFTLTISSLQPDDVATYFCAVFQWFGPGTKVDIKR
notes: also called 12A21HC; 12a21kc
Molecule B10 gave a Kd with YU-2 gp140 [3] of 0.00375 nM. In the experiment with YU-2 gp140 [1], this molecule displayed a koff of 3.44e-07 s⁻¹ and a kon of 91800 M⁻¹ s⁻¹.

B11: 8ANC5 (antibody, V domains shown)
VH: QVQLVQSGAEVRKPGSSLKVSCKSSGGTFSRFVVNWVRQAPGQGLEWMGGMIPIFGIAKYAQKFQDRVTMTADESKNTVYLDFSSLRSDDTAVYYCARDRGDTRLLDYGDYEDERYYYGMDVWGQGTTVIVSS
VL: DIQMTQSPPSLSASVGDRVTITCQASQDINNFLNWYQQKPGKAPRLLIYDASNLESGVSSRFSGSRSGTDFTLTISSLLPEDIATYSCQQYSNLPYTFSQGTKLEIKR
notes: also called 8ANC5HC; 8ANC5KC
Take B11: the binding result in the experiment with YU2 gp120 [2] was “binds”.

B12: 3B27 (antibody, V domains shown)
VH: EVQLVESGGGLVQPGGSLRISCSATGFTFSTHAMHWVRQAPGKGLEYVSAINSNGRSAFYADSVKGRVTISRDNSKNTLFLQMTSLRAEDTAVYYCVKGPLLRYLDSWGQGTLVTVSS
VL: EIVLTQSPATLSVSPGERATLSCRAGQSVSSDLAWYQHKPGQAPRLLIYDASKRATGIPARFSGSGSGTDFTLTISSLEPEDFAVYYCQHRTNWPPSITFGQGTRLEIKR
notes: also called 3B27HC; 3b27kc
Consider B12, for which the binding result in the experiment with YU2 gp120 [4] was “binds”.

B13: 12A12 (antibody, V domains shown)
VH: SQQLVQSGTQVKKPGASVRISCQASGYSFTDYVLHWWRQAPGQGLEWMGWIKPVYGARNYARRFQGRINFDRDIYREIAFMDLSGLRSDDTALYFCARDGSGDDTSWHLDPWGQGTLVIVSA
VL: DIQMTQSPSSLSASVGDRVTITCQAGQGIGSSLQWYQQKPGKAPKLLVHGASNLHRGVPSRFSGSGFHTTFSLTISGLQRDDFATYFCAVLEFFGPGTKVEIKR
notes: also called 12A12HC; 12a12kc
In the experiment with YU-2 gp140 [1], B13 registered a Kd of 0.315 nM, a koff of 1.44e-05 s⁻¹ and a kon of 45900 M⁻¹ s⁻¹.

B14: 8ANC14 (antibody, V domains shown)
VH: QVQLVQSGAEVKKPGASVKVSCKVSGYTLTELSIHWVRQAPGKGLEWMGGFDSEDGEAFYKQNFQGRVTMTEDTSTDTAYMELRRLRSEDTAVYYCATADRFKVAQDEGLFVIFDYWGQGTLVTVSS
VL: EIVLTQSPATLSLSPGERATLSCRASQSINNYLAWYQQKPGQAPRLLIYDASNRATGIPARFSGGGSGTDFTLTISSLEPEDFAVYYCQQRANWRLLTFGGGTKVEIKR
notes: also called 8ANC14HC; 8ANC14KC
Consider B14, for which the binding result with YU2 gp120 [2] was “binds”.

B15: 3B41 (antibody, V domains shown)
VH: EVQLVQSGAEVKKPGASVKVSCKVSGYTLTELSMHWVRQAPGKGLEWMGVFDPLEGDGVYAEKFRGRVIMTEDTSTDTGYMELTSLRSEDTAIYYCATKAKDYYYESSDYSPYYYYYMDVWGKGTTVTVSS
VL: EIVLTQSPGTLSLSPGERATLSCRASQSVSSNYLAWYQQKPGQAPRLLIYGASSRATGIPDRFSGSGSGTDFTLSISRLEPEDFAVYYCQQYGTSSCTFGQGTKLEIKR
notes: also called 3B41HC; 3b41kc
Turning to B15, the binding result in the experiment with YU2 gp120 [4] is given as “binds”.

B16: 8ANC50 (antibody, V domains shown)
VH: QGQLVQSGGGVKKPGTSVTISCLASEYTFTEFTIHWIRQAPGQGPLWLGLIKRSGRLMTAYRFQDRLSLRRDRSTGTVFMELRNLRMDDTAVYYCARDGLGELAPAYQYGIDVWGQGTTVIVSS
VL: EIVLTQSPTTLSLSPGERATLSCRASQGVNLVVWYQQKRGQAPRLLIYGPSDRAPGVPDRFSARGSGTEFSLVISSVEPDDFALYYCQEYSSTPYNFGTGTRVDRKR
notes: also called 8ANC50HC; 8ANC50KC
On to B16, for which the binding result in the experiment with YU2 gp120 [2] is “binds”.

B17: 8ANC134 (antibody, V domains shown)
VH: QGQLVQSGGGVKKPGTSVTISCLASEYTFNEFVIHWIRQAPGQGPVWLGLIKRSGRLMTSYKFQDRLSLRRDRSTGTVFMELRGLRLDDTAVYYCARDGLGEVAPAYLYGIDAWGQGSTVIVTS
VL: B16 VL with T9A, V29L, L31F, R39G, Y48H, S51T, T99P
notes: also called 8ANC134HC; 8ANC134KC
B17: in the experiment with YU-2 gp140 [1], binding was put at a Kd of 113 nM, the koff worked out at 0.00174 s⁻¹ and the kon was found to be 15500 M⁻¹ s⁻¹.

B18: 8ANC131 (antibody, V domains shown)
VH: B17 VH with V11L, V46L, S60A, K62N, S68R, L87P, A106D, L108R, A113V, S124A
VL: B16 VL with T9A, V29L, L31F, Y48H, G49A, D52G, L84I, T99P
notes: also called 8ANC131HC; 8ANC131KC
In the experiment with YU-2 gp140 [1], B18 gave a Kd of 16.5 nM, a koff of 0.00109 s⁻¹ and a kon of 65900 M⁻¹ s⁻¹.

B19: 1B2530 (antibody, V domains shown)
VH: QVRLEQSGAAMRKPGASVTLSCQASGYNFVKYIIHWVRQKPGLGFEWVGMIDPYRGRPWSAHKFQGRLSLSRDTSMEILYMTLTSLKSDDTATYFCARAEAASDSHSRPIMFDHWGQGSRVTVSS
VL: QSALTQPPSASGAPGQRVTISCSGGPSNVGGNYVYWYRQFPGTAPTLLILRDDQRPSGVPDRFSASKSGNSASLAISGLRPDDEGFYFCATYDSDGSIRLFGGGTALTVLS
notes: also called LSSB2530HC; LSSB2530LC
B19: in the experiment with YU-2 gp140 [1], binding was put at a Kd of 34.2 nM, the koff worked out at 0.00162 s⁻¹ and the kon was determined as 47400 M⁻¹ s⁻¹.
